Columns and labels:
[1] = test system: T1, 4-[Succinimidopropionoyl-(H-Cys-βAla-Arg-Arg-Met-Lys-Trp-Lys-Lys-NH2)]epipodophyllotoxin
T1 sequence: CRRMKWKK

[2] = test system: T2, 4-[Succinimidopropionoyl-(H-Cys-βAla-Arg-Arg-Met-Lys-Trp-Lys-Lys-NH2)]podophyllotoxin
T2 sequence: CRRMKWKK

[3] = test system: T3, 4′-Demethyl-4-[4″-aminoanilino-(succinimidopropionoyl)-(H-Cys-bAla-Arg-Arg-Met-Lys-Trp-Lys-Lys-NH2)]-epipodophyllotoxin
T3 sequence: CRRMKWKK

[4] = test system: T4, 4′-Demethyl-4-[acetyl-(H-Cys-βAla-Arg-Arg-Met-Lys-Trp-Lys-Lys-NH2)]epipodophyllotoxin
T4 sequence: CRRMKWKK

[5] = test system: T5, H-βAla-Arg-Arg-Met-Lys-Trp-Lys-Lys-NH2
T5 sequence: RRMKWKK

Substance: purified recombinant human topoisomerase II
- Activity observed (topoisomerase II cleavage and relaxation assays on plasmid DNA) [1]: IC
- Activity observed (topoisomerase II cleavage and relaxation assays on plasmid DNA) [2]: -
- Activity observed (topoisomerase II cleavage and relaxation assays on plasmid DNA) [3]: I
- Activity observed (topoisomerase II cleavage and relaxation assays on plasmid DNA) [4]: IC
- Activity observed (topoisomerase II cleavage and relaxation assays on plasmid DNA) [5]: -

From US20030119735
